# According to article PMC8611094:
# pKd: −log10 of the molar value.
# Target: T1, DHX36 (UniProt Q9H2U1)
# T1 sequence (Q9H2U1 whole entry, looked up): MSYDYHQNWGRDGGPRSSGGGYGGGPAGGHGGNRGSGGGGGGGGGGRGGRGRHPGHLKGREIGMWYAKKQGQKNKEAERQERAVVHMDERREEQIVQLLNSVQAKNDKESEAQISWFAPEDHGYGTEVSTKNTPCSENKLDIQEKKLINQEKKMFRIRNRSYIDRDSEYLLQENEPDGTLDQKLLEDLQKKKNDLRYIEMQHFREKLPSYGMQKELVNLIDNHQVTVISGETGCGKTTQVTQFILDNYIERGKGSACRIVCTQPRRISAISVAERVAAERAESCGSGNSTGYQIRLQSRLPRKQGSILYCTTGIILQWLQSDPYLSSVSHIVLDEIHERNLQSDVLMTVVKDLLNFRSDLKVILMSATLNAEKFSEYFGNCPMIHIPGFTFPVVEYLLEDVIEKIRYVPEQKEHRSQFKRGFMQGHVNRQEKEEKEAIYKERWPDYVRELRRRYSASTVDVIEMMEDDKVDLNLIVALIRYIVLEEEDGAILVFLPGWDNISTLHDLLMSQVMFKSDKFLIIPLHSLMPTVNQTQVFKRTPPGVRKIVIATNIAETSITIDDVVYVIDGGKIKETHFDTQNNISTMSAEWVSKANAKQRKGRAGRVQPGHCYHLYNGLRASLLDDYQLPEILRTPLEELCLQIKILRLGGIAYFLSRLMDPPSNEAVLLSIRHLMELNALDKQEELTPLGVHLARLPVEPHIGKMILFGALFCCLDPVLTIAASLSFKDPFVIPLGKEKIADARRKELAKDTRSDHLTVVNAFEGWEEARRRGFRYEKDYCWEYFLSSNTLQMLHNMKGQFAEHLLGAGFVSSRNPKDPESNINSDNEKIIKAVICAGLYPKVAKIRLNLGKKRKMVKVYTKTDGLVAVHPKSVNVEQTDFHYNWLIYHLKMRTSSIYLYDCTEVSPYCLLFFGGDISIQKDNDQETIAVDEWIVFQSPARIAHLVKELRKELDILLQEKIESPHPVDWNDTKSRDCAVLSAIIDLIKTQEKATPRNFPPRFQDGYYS
# Assay: ELISA
# Details: ELISA performed as in Zyner et al. (ref 43); buffer, salt, pH and temperature not given in the material
sequence,measurement,value
UGUGGGAGGGGCGGGUCUGGGUGC [NRAS G4],pKd,9.05
